Measured values as given in article PMC7854603, “Nucleic acid binding by SAMHD1 contributes to the antiretroviral activity and is enhanced by the GpsN modification”.

How the values were obtained:
SAMHD1 HD domain WT [1] = target: T1, SAMHD1 HD domain WT (UniProt Q9Y3Z3 114-626); experiment: fluorescence anisotropy; FA: 50 mM Tris pH 8, 100 mM NaCl, 5 mM MgCl2, 1 mM TCEP, 50 nM 6FAM-oligo (salt series with KCl 50-150 mM); SEC same buffer; NMR: 50 mM Tris pH 7.5, 150 mM NaCl, 5 mM MgCl2, 10% D2O; temperature not stated; details: protein: recombinant; chain copies: 2; label: 5'-6FAM; single strand
T1 sequence (Q9Y3Z3 114-626): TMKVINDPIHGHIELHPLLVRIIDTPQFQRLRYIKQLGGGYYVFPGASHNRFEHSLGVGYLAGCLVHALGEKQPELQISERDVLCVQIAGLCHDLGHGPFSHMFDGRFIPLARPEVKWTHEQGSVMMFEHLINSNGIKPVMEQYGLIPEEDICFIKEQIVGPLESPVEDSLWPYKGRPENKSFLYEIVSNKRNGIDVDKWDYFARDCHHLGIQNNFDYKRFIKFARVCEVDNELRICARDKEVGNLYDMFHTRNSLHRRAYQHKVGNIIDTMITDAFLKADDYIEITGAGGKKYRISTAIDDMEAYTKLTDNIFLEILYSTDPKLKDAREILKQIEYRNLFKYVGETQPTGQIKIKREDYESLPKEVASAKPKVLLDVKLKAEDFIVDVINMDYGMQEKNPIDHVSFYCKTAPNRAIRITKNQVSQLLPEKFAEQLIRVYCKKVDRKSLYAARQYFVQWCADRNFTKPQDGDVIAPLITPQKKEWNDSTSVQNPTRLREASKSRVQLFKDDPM

SAMHD1 HD domain WT [2] = target: T1, SAMHD1 HD domain WT; experiment: as above; details: protein: recombinant; chain copies: 2; label: 5'-6FAM; single strand; remark: listed apart in the source
SAMHD1 HD domain WT [3] = target: T1, SAMHD1 HD domain WT; experiment: X-ray crystallography; FA: 50 mM Tris pH 8, 100 mM NaCl, 5 mM MgCl2, 1 mM TCEP, 50 nM 6FAM-oligo (salt series with KCl 50-150 mM); SEC same buffer; NMR: 50 mM Tris pH 7.5, 150 mM NaCl, 5 mM MgCl2, 10% D2O; temperature not stated; details: protein: recombinant; chain copies: 2; single strand
SAMHD1 HD domain WT [4] = target: T1, SAMHD1 HD domain WT; experiment: fluorescence anisotropy; no significant difference from d(TG*TTCA); FA: 50 mM Tris pH 8, 100 mM NaCl, 5 mM MgCl2, 1 mM TCEP, 50 nM 6FAM-oligo (salt series with KCl 50-150 mM); SEC same buffer; NMR: 50 mM Tris pH 7.5, 150 mM NaCl, 5 mM MgCl2, 10% D2O; temperature not stated; details: protein: recombinant; chain copies: 2; label: 5'-6FAM; single strand
SAMHD1 HD domain WT [5] = target: T1, SAMHD1 HD domain WT; experiment: fluorescence anisotropy; tolerant to increasing salt (from 50 mM KCl); FA: 50 mM Tris pH 8, 100 mM NaCl, 5 mM MgCl2, 1 mM TCEP, 50 nM 6FAM-oligo (salt series with KCl 50-150 mM); SEC same buffer; NMR: 50 mM Tris pH 7.5, 150 mM NaCl, 5 mM MgCl2, 10% D2O; temperature not stated; details: protein: recombinant; chain copies: 2; label: 5'-6FAM; single strand
SAMHD1 D311A = SAMHD1 D311A (UniProt Q9Y3Z3 114-626, D311A); experiment: analytical ultracentrifugation; no nucleotides; dimer, S ~6; FA: 50 mM Tris pH 8, 100 mM NaCl, 5 mM MgCl2, 1 mM TCEP, 50 nM 6FAM-oligo (salt series with KCl 50-150 mM); SEC same buffer; NMR: 50 mM Tris pH 7.5, 150 mM NaCl, 5 mM MgCl2, 10% D2O; temperature not stated; details: protein: recombinant; chain copies: 2; label: 5'-6FAM; single strand
SAMHD1 D311A, sequence (Q9Y3Z3 114-626 D311A): as the sequence (Q9Y3Z3 114-626) above, with D198A counted along it

SAMHD1 K523A = SAMHD1 K523A (UniProt Q9Y3Z3 114-626, K523A); experiment: size-exclusion chromatography; 50 uM GTP + 50 uM dTTP; 2-fold higher stoichiometry than D311A; FA: 50 mM Tris pH 8, 100 mM NaCl, 5 mM MgCl2, 1 mM TCEP, 50 nM 6FAM-oligo (salt series with KCl 50-150 mM); SEC same buffer; NMR: 50 mM Tris pH 7.5, 150 mM NaCl, 5 mM MgCl2, 10% D2O; temperature not stated; details: protein: recombinant; chain copies: 2; label: 5'-6FAM; single strand
SAMHD1 K523A, sequence (Q9Y3Z3 114-626 K523A): as the sequence (Q9Y3Z3 114-626) above, with K410A counted along it

SAMHD1 R352A = SAMHD1 R352A (UniProt Q9Y3Z3 114-626, R352A); experiment: as above; details: protein: recombinant; chain copies: 2; label: 5'-6FAM; single strand
SAMHD1 R352A, sequence (Q9Y3Z3 114-626 R352A): as the sequence (Q9Y3Z3 114-626) above, with R239A counted along it

B1: 6FAM oligo with G replaced by A (ssDNA)
DNA: CACCT
modifications: phosphorothioate?
- binding result (SAMHD1 HD domain WT [1]): no binding

B2: 6FAM-d(TG*TTCA) Rp (ssDNA)
DNA: TGTTCA
modifications: phosphorothioate after G2, pure Rp
- binding signal (SAMHD1 HD domain WT [2]): ~10 fold higher affinity than Sp

B3: r(CGCCU) (ssRNA)
RNA: CGCCU
- binding result (SAMHD1 HD domain WT [3]): binds

B4: 6FAM-r(UG*UUCA) (ssRNA)
RNA: UGUUCA
modifications: phosphorothioate after G2, mixed Rp/Sp
- binding result (SAMHD1 HD domain WT [4]): binds

B5: 6FAM-d(TG*TTCA) Sp (ssDNA)
DNA: TGTTCA
modifications: phosphorothioate after G2, pure Sp
- binding signal (SAMHD1 HD domain WT [2]): ~0.1 affinity relative to Rp

B6: d(C*G*C*C*T) (ssDNA)
DNA: CGCCT
modifications: phosphorothioate at linkages 1-4, mixed Rp/Sp
- binding result (SAMHD1 HD domain WT [3]): binds

B7: 6FAM-r(C*G*C*C*U) (ssRNA)
RNA: CGCCU
modifications: phosphorothioate at linkages 1-4, mixed Rp/Sp
- binding result (SAMHD1 HD domain WT [5]): binds

B8: 6FAM-d(C*G*C*C*T) (ssDNA)
DNA: CGCCT
modifications: phosphorothioate at linkages 1-4, mixed Rp/Sp
- binding result (SAMHD1 D311A): binds
- binding result (SAMHD1 HD domain WT [5]): binds
- binding result (SAMHD1 K523A): binds
- binding result (SAMHD1 R352A): binds

B9: 6FAM oligo with G replaced by T (ssDNA)
DNA: CTCCT
modifications: phosphorothioate?
- binding result (SAMHD1 HD domain WT [1]): no binding
